From patent US20120088276

Legend:
[1] = target: T1, E. coli (strain K12) RecA protein, wild type
T1 chain: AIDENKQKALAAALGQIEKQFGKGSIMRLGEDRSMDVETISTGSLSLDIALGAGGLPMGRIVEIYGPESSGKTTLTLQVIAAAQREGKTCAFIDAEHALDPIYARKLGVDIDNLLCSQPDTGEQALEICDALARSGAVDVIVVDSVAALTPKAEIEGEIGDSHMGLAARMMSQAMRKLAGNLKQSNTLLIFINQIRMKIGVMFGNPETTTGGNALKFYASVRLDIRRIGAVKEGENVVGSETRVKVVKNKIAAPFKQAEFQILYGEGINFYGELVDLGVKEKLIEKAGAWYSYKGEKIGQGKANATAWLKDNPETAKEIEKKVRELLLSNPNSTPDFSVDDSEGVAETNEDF

B1: bacteriophage P1 Ref protein (wild type) (protein)
chain: MKTIEQKIEQCRKWQKAARERAIARQREKLADPVWRESQYQKMRDTLDRRIAKQKERPPASKTRKSAVKIKSRGLKGRTPTAEERRIANALGALPCIACYMHGVISNEVSLHHIAGRTAPGCHKKQLPLCRWHHQHAAPAEVREKYPWLVPVHADGVVGGKKEFTLLNKSEMELLADAYEMANIMH
nuclease activity (degradation of M13mp18 circular ssDNA, agarose gel) [1]: the nuclease activity depended on both Ref and active RecA filaments
targeted cleavage of both strands of duplex DNA at RecA-created D-loops (restriction analysis, agarose gel) (RecA E38K mutant protein): the Ref-induced breaks in the circular double stranded DNA occur where the RecA-bound oligonucleotide invaded the duplex DNA to form a D-loop
